Data published in PMC3462613.
Read-outs that look alike come from different tables or passages of the source.

Key:
Experiment in all cases: fluorescence polarisation
[1] = target: FITC-labelled SMN^26–51 D44V (human) (UniProt Q16637)
[2] = target: FITC-labelled SMN^26–51, wild type (human) (UniProt Q16637)
[3] = target: FITC-labelled SMN^26–51, wild type (human) (UniProt Q16637); remark: listed apart in the source
[4] = target: FITC-labelled SMN^26–51 D44V (human) (UniProt Q16637); remark: listed apart in the source
[5] = target: FITC-labelled SMN^26–51, wild type (human) (UniProt Q16637); remark: listed apart in the source
[6] = target: FITC-labelled SMN^26–51, wild type (human) (UniProt Q16637); remark: listed apart in the source
[7] = target: FITC-labelled SMN^26–51, wild type (human) (UniProt Q16637); remark: listed apart in the source
[8] = target: FITC-labelled SMN^26–51 A46N (human) (UniProt Q16637)
[9] = target: FITC-labelled SMN^26–51 D35A (human) (UniProt Q16637)
[10] = target: FITC-labelled SMN^26–51 D36A (human) (UniProt Q16637)
[11] = target: FITC-labelled SMN^26–51 D44A (human) (UniProt Q16637)
[12] = target: FITC-labelled SMN^26–51 D44V (human) (UniProt Q16637); remark: listed apart in the source
[13] = target: FITC-labelled SMN^26–51 K41A (human) (UniProt Q16637)
[14] = target: FITC-labelled SMN^26–51 L39A (human) (UniProt Q16637)
[15] = target: FITC-labelled SMN^26–51 W34A (human) (UniProt Q16637)
[16] = target: FITC-labelled SMN^26–51 Y43A (human) (UniProt Q16637)
[17] = target: FITC-labelled SMN^26–51, wild type (human) (UniProt Q16637); remark: listed apart in the source
[18] = target: SMN^26–51 peptide containing phosphoserine at positions 28 and 31 (human) (UniProt Q16637)

Substance	Kd [1]	Kd [2]	Kd [3]	Kd [4]	Kd [5]	Kd [6]	Kd [7]	Kd [8]	Kd [9]	Kd [10]	Kd [11]	Kd [12]	Kd [13]	Kd [14]	Kd [15]	Kd [16]	Kd [17]	Kd [18]
Gemin2^95–280 (domain or fragment)	1.5 nM	2.3 nM	180 nM	1800 nM	2.2 nM	5.2 nM	2.4 nM	42 nM	6.8 nM	8.3 nM	5.3 nM	8.4 nM	4.8 nM	74 nM	16 nM	510 nM	3.3 nM	4.2 nM
Gemin2 (12–280) (natural protein)	–	–	–	–	–	–	–	–	–	–	–	–	–	–	–	–	7 nM	–
